In this assay the target is T1, Recombinant IRF5 (interferon regulatory factor 5), biotin-labeled (UniProt Q13568 1-498, biotin (EZ-Link NHS-PEG4-Biotin, ratio 1:1)).
T1 construct: Interferon regulatory factor 5 (IRF5), recombinant; also called B-IRF5; source: made and purified by Top Gene Technologies (Montreal, Quebec, Canada)
T1 sequence (looked up): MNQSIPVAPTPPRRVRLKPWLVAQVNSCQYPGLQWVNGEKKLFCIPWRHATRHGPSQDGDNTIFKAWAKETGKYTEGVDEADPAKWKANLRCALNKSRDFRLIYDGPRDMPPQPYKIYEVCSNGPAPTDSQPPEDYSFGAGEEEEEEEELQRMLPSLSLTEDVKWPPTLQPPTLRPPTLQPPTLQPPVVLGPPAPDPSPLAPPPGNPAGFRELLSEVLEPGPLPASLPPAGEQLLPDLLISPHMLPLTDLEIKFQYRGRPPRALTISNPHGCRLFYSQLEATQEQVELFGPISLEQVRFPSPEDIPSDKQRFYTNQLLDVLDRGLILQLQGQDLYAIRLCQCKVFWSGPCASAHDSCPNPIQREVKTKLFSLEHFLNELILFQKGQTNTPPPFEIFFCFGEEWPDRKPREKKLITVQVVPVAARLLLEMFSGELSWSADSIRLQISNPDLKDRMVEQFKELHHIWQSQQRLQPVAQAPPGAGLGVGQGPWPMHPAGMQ
Kind of assay: BLI; Octet RED; biotin-labeled IRF5 loaded onto streptavidin biosensors in PBS for 15 min; sensors incubated in PBS with increasing concentrations of IRF5D for 10 min; n = 3. The settings on record: both partners purified. (BLI is a label-free optical method that tracks binding on a fibre tip over time.)

The text below walks through data of PMC4822818, “An IRF5 Decoy Peptide Reduces Myocardial Inflammation and Fibrosis and Improves Endothelial Cell Function in Tight-Skin Mice” (PLoS ONE, 2016).

B1: IRF5D (Ac-ELDWDADDIRLQIDNPD-NH2), IRF5 decoy peptide (peptide)
chain: Ac-ELDWDADDIRLQIDNPD-NH2
Take B1: the Kd (commonly the constant that tells how readily two partners part at equilibrium) was determined as 3.72 µM.
